Data from patent US9340584 (dated 2016).

Biological target: human serum albumin (human, UniProt P02768 25-609)
Test: SPR

Kd | Binder
870 nM | mutant TRX protein H6 (HSA binder, purified) (designed binder) MVKQIESKTAFQEALDAAGDKLVVVDFSATDRKPWKTRGWSGPSKMIKPFFHSLSEKYSNVIFLEVDVDDAQDVASEAFGLFSFPLLPTFQFFKKGQKVGEFSGANKEKLEATINELV
520 nM | mutant TRX protein F3 (HSA binder, purified) (designed binder) MVKQIESKTAFQEALDAAGDKLVVVDFSATGGTPGRRNRWSGPSKMIKPFFHSLSEKYSNVIFLEVDVDDAQDVASEAFCEFCFPFLPTFQFFKKGQKVGEFSGANKEKLEATINELV

More lines, now with the values behind:

Binder | Kd
RLuc-H6 (other) MVKQIESKTAFQEALDAAGDKLVVVDFSATDRKPWKTRGWSGPSKMIKPFFHSLSEKYSNVIFLEVDVDDAQDVASEAFGLFSFPLLPTFQFFKKGQKVGEFSGANKEKLEATINELV | 2460 nM
RLuc-F3 (other) MVKQIESKTAFQEALDAAGDKLVVVDFSATGGTPGRRNRWSGPSKMIKPFFHSLSEKYSNVIFLEVDVDDAQDVASEAFCEFCFPFLPTFQFFKKGQKVGEFSGANKEKLEATINELV | 640 nM
mutant TRX protein E2 (HSA binder, purified) (designed binder) MVKQIESKTAFQEALDAAGDKLVVVDFSATKNEKRDVAEWSGPSKMIKPFFHSLSEKYSNVIFLEVDVDDAQDVASEAFGFFGFPVLPTFQFFKKGQKVGEFSGANKEKLEATINELV | 830 nM
RLuc-E2 (other) MVKQIESKTAFQEALDAAGDKLVVVDFSATKNEKRDVAEWSGPSKMIKPFFHSLSEKYSNVIFLEVDVDDAQDVASEAFGFFGFPVLPTFQFFKKGQKVGEFSGANKEKLEATINELV | 1300 nM
